Results on 25 molecules are retold here after US20260234738A1 (Regeneron, published 2026).

B1: mAb10930 (antibody, V domains shown)
VH: EVQLVESGGGLVQPGRSLRLSCAASGFTFDDYAMYWVRQAPGKGLEWVSGISWNSGSIGYADSVKGRFTISRDNAKNSLYLQMNSLRAADTALYYCAKDKDWNSRGYYYYGMDVWGQGTTVTVSS
VL: not shown
B2: mAb10939 (antibody, V domains shown)
VH: EVQLVESGGGLVQPGGSLRLSCAASGLTVSSNYMNWVRQVPGKGLEWVSVIYSGGSKFYVDSVKGRFTISRHNSKNTLYLQMNSLRPEDTAVYYCTRDAQYYGMDVWGQGTTVTVSS
VL: DIQMTQSPSSLSASVGDRVTITCRASQSISTYLHWYQQKPGEAPKLLIYAASSLQSGVPSRFSGSGSGTDFTLTISSLQPEDFATYYCQQSYSTPPEIFGQGTKLEIKR
B3: mAb10915 (antibody, V domains shown)
VH: EVQLVESGGGLVQPGGSLRLSCAASGFTVSSNYMNWVRQAPGKGLEWVSVIYSGGSTFYADSVKGRFTISRHNSKNTLYLQMNSLRPEDTAVYYCARDLGGYFDYWGQGTLVTVSS
VL: not shown
B4: mAb10964 (antibody, V domains shown)
VH: QVQLQESGPGLVKPSETLSLTCTVSGGSINNYYWIWIRQPPGKGLEWIGYIYHSGSTNYNPSLKSRVTISVDTSKNQFSLKVSSVTAADTAVYYCANMVRGVYEDDYWGQGTLVTVSS
VL: DIQMTQSPSSLSASVGDRVTITCRASQSISNYLNWYQQKPGKAPKLLIFAASSLRSGVPSRFSGSGSGTDFTLTISSLHPEDFATYYCQQNYNTPLTFGPGTKVDIKR
B5: mAb10923 (antibody, V domains shown)
VH: QVQLVQSGAEVKKPGASVKVSCKASGYTFINYYIHWVRQAPGQGLEWMGWINPNSGGTNYAQKFQGRVTMTRDTSISTAYMELSRLRSDDTAVYYCAIITIFGVVTWFDPWGQGTLVTVSS
VL: not shown
B6: mAb10966 (antibody, V domains shown)
VH: EVQLVESGGGLVQPGGSLRLSCAASGLTVSSNYMSWVRQAPGKGLEWVSVIYSGGSTFYADSVKGRFTISRDNSKNTLYLQMNSLRPEDTAVYYCAREGRIAATGYGMDVWGQGTTVTVSS
VL: not shown
B7: mAb10934 (antibody, V domains shown)
VH: not shown
VL: DIQMTQSPSSLSASVGDRVTITCQASQDIWNYINWYQQKPGKAPKLLIYDASNLKTGVPSRFSGSGSGTDFTFTISSLQPEDIATYYCQQHDDLPPTFGQGTKVEIKR
B8: mAb10954 (antibody, V domains shown)
VH: EVQLVESGGGLVQPGGSLRLSCAASGITVSSNYMSWVRQAPGKGLEWVSLIYSGGSTYYADSVKGRFTISRDNSKNTLYLQMNSLRVEDTAVYYCARDHGMAAAGYNYWGQGTLVTVSS
VL: B7 VL with W30N, N31K, I33L, K55E, S76N, I83F, Y87F, H91Y, D93N, T97A
B9: mAb10935 (antibody, V domains shown)
VH: EVQLVESGGGLVQPGGSLRLSCAASGFTVSSNYMSWVRQAPGKGLEWVSLIYSGGSTYYADSVKGRFTISRHNSKNTLYLQMNSLRSEDTAVYYCARVPLGDYYYGMDVWGQGTTVTVSS
VL: B7 VL with W30N, N31K, I33L, K55E, H91S, D93N, P96L, Q100G
B10: mAb10955 (antibody, V domains shown)
VH: EVQLVESGGGLVQPGGSLRVSCAASGFTVSRNYMSWVRQAPGKGLEWVSVIYSGGSTFYADSVKGRFTISRDNSKNTLYLQMNSLRAEDTAIYYCARYIPRFDPWGQGTLVTVSS
VL: B7 VL with W30S, I33L, Y36F, K42R, K55E, H91Y, D93N, P96I, K103R, V104L
B11: mAb10967 (antibody, V domains shown)
VH: EVQLVESGGGLVQPGGSLRLSCAASGFTVSSNYMSWVRQAPGKGLEWVSVIYPGGSTFYADSVKGRFTISRDNSKNTLYLQMNSLRAEDTAVYYCARDQRDFAWGQGTLVTVSS
VL: B7 VL with W30S, I33L, K55E, S77G, H91Y, D93N, K103R, V104L
B12: mAb10938 (antibody, V domains shown)
VH: EVQLVESGGGLVQPGGSLRLSCAVSGFTVSSNYMSWVRQAPGKGLEWVSLIYSGGSTFYADSVKGRFTISRHNSKNTLYLQMNSLRAEDTAVYYCAREGGYSYDYNYWGQGTLVTVSS
VL: B7 VL with W30R, I33L, K55E, S65I, H91Y, D93N, P96I, K103R, V104L
B13: mAb10965 (antibody, V domains shown)
VH: EVQLVESGGGLIQPGGSLRLSCAASVFTVSYNYMSWVRQAPGKGLEWVSVIYSGGSTYYADSVKGRFTISRDNSKNTLYLQMNSLRAEDTAVYYCARALPGWGGSFEYFDYWGQGTLVTVSS
VL: not shown
B14: mAb10920 (antibody, V domains shown)
VH: QVQLVESGGGVVQPGRSLRLSCAASGFTFSYYGMHWVRQAPGKGLEWVAVIWYDGSNKFYADSVKGRFTISRDNSKNTLYLQMNSLRAEDTAVYYCAAARPGYYYGMDVWGQGTTVTVSS
VL: DIQMTQSPSSLSASVGDRVTITCRASQGISNYLAWFQQKPGKAPNSLIYAASSLQRGVPSKFSGSGSGTDFTLTISSLQPEDFATYYCQQYNSYPRTFGQGTKVEIKR
B15: mAb10937 (antibody, V domains shown)
VH: QITLKESGPTLVKPTQTLTLTCTFSGFSLSTNVVGVGWIRQPPGKALEWLALIYWNDDKRYSPSLKSRLTITKDTSKNQVVLTMTNMDPVDTATYYCAHGPTGDYFDYWGQGTLVTVSS
VL: not shown
B16: mAb10984 (antibody, V domains shown)
VH: EVQLVESGGGLVQPGGSLRLSCAASGLTVNRNYMSWVRQAPGKGLEWVSLIYSGGSTYYADSVKGRFTISRDNSKNTLYLQMNSLRLEDTAVYYCARGELGIPYGMDVWGQGTTVTVSS
VL: QSVLTQPPSVSAAPGQKVTISCSGSSSNIGNNYVSWYQQLPGTAPKLLIYDNNKRPSGIPDRFSGSKSGTSATLGITGLQTGDEADYYCGTWDSSLSAGVFGGGTKLTVLG
B17: mAb10932 (antibody, V domains shown)
VH: EVQLVESGGGLVQSGGSLRLSCAASGLTVSSNYMSWVRQAPGKGLEWVSVIYSGGSTFYSDSVKGRFTISRHNSKNTLYLQMNSLRAEDTAVYYCARARGDAFDIWGQGTMVTVSS
VL: not shown
B18: mAb10914 (antibody, V domains shown)
VH: EVQLVESGGGLVQPGGSLRLSCAASGLIVSRNYMIWVRQAPGKGLEWVSVIYSGGSTFYADSVKGRFTISRHNSKNTLYLQMNSLRAEDTAVYYCARDLGTGGMDVWGQGTTVTVSS
VL: DIQLTQSPSFLSASVGDRVTITCWASQGISSYLAWYQQKPGKAPKLLIYAASTLQSGVPSRFSGSGSGTEFTLTISSLQPEDFATYYCQQLNSYPLTFGGGTKVEIKR
B19: mAb10957 (antibody, V domains shown)
VH: B18 VH with L27V, I28T, R31S, I35S, H72D, Y79F, A87I, T101P, G102Y
VL: DIQLTQSPSFLSASVGDRVTITCRASQGISSYLAWYQQKPGKAPKLLIYAASTLQSGVPSRFSGSGSGTQFILTISSLQPEDFATYYCQQLNSYPGFTFGPGTKVDIKR
B20: mAb10956 (antibody, V domains shown)
VH: B18 VH with I28T, R31S, I35S, H72D, G100I, T101K, G102Y
VL: not shown
B21: mAb10971 (antibody, V domains shown)
VH: EVQLVESGGGLIQPGGSLRLSCAASGVTVSSNYMSWVRQAPGKGLEWVSVIYSGGSTFYSDSVKGRFSISRDNSKNTLYLQMNSLRAEDTAVYYCARDLYYYGMDVWGQGTTVTVSS
VL: B19 VL with S31T, Q70E, I72T, N92D, F97L, P101G, D106E
B22: mAb10913 (antibody, V domains shown)
VH: EVQLVESGGGLVQPGGSLRLSCAASGFTFRNYEMNWVRQAPGKGLEWVSYITSSGSTMYYADSVKGRFTISRDNAKNSLYLQMNSLRAEDTAVYYCARDGFYYYYAMDVWGQGTTVTVSS
VL: QSVLTQPPSVSAAPGQKVTISCSGSSSNIGNNYVSWYQQLPGTAPKLLIYDNNKRPSGIPDRFSGSKSGTSATLGITGLQTGDEADYYCGTWDSSLSVGRVFGTGTKVTVLG
B23: mAb10921 (antibody, V domains shown)
VH: EVQLVESGGGLVQPGGSLRLSCAASGITVSSNYMSWVRQAPGKGLEWVSVIYSGGSTFYADSVKGRFTISRHNSKNTLYLQMNSLRAEDTAVYYCARERNFDAFDIWGQGTMVTVSS
VL: B19 VL with L4M, F10S, L11V, Y32W, T53S, Q70D, I72T, L91A, Y94F, G96L
B24: mAb10936 (antibody, V domains shown)
VH: QVQLVESGGGVVQPGRSLRLSCAASGFTFRNYGMHWVRQAPGKGLEWVSVIWYDGSNRYYADSVKGRFTISRDTSKNTLYLQMNSLRAEDTAVYYCARDPPITGTTGGDAFDIWGQGTMVTVSS
VL: not shown
B25: mAb10982 (antibody, V domains shown)
VH: EVQLVESGGGLVQPGGSLRLSCAASGLTVSSNYMSWVRQAPGKGLEWVSVIYSGGTTYYADSVKGRFTISRHNSKNTLSLQMNSLRAEDTAVYYCARGEGANYYGMDVWGQGTTVTVSS
VL: QSVLTQPPSVSGAPGQRVTISCTGSSSNIGTGYDVHWYQQLPGTAPKLLIYGNSNRPSGVPDRFSGSKSGTSASLAITGLQAEDEADYYCQSYDSSLSGYVVFGGGTKLTVLG

Positions count from the first letter of the chain named. Several values for one entry are separate records, joined by “and”; a condition that tells them apart may be missing. Equal values may be shown once.

The test concerns the target SARS-COV-2 Spike protein receptor binding domain (amino acids Arg319-Phe541) expressed with the Fc p (SARS-CoV-2).
In general, IC50 refers to the point on the concentration scale where inhibition reaches its midpoint. A lower IC50 goes with higher potency. As to B1, the IC50 is 0.282 nM.
For B2, the IC50 was 0.175 nM and 0.263 nM.
The result for B3 reads 0.321 nM; that for B4, 0.0683 nM and 0.0625 nM.
Turning to B5, the IC50 is 0.149 nM and 0.184 nM.
B6: the IC50 was determined as 0.16 nM. This counts as sub-nanomolar.
The same measure for B7: 0.066 nM and 0.0597 nM.
As for B8, the half-maximal inhibitory concentration (IC50) amounted to 0.0711 nM.
As to B9, the IC50 was 0.102 nM and 0.0694 nM.
For the molecule B10, the IC50 was 0.141 nM.
Regarding B11, the IC50 was 0.28 nM.
B12 returned an IC50 of 0.275 nM.
The same measure for B13: 0.213 nM; for B14: 0.338 nM and 0.139 nM.
Molecule B15 displayed an IC50 of 0.0649 nM.
On to B16, for which the IC50 worked out at 0.0775 nM.
Take B17: the IC50 amounted to 0.373 nM.
The molecule B18 had an IC50 of 0.98 nM.
B19 gave an IC50 of 0.169 nM.
The molecule B20 had an IC50 of 0.185 nM.
The result for B21 reads 0.149 nM; that for B22, 0.217 nM.
Take B23: the IC50 is 0.433 nM and 0.507 nM.
On to B24, for which the IC50 is 0.0875 nM and 0.071 nM.
The result for B25 reads 0.116 nM.
